Reference: paper PMC5114850 (Science (New York, N.Y.), 2016)

Biological target: recombinant human calmodulin (human, UniProt P0DP23 1-149)
Experiment: ITC

Ac-EDLSSSYYRDYVKKILKKKK-NH2 [CaMBP0 peptide of zebrafish STRA6]
Kd: 2560 ± 722 nM
dH: -7.8 ± 0.8 kcal/mol
stoichiometry N: 1.01 ± 0.07 sites
